Experiment [1] has as its target T1, human GITR (Homo sapiens, UniProt Q9Y5U5).
T1 construct: expressed in transfected cells; host or cells: HEK-293 (293) cells
T1 sequence (Q9Y5U5 26-241): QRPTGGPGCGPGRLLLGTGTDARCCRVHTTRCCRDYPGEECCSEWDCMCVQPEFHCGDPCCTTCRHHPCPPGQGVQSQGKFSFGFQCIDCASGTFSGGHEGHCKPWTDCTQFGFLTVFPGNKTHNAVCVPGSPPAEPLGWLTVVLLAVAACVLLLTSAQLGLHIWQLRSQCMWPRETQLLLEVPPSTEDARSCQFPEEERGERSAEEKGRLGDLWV
The experiment in a line: NFκB-Luciferase reporter gene assay, 293 cells with human GITR. Format: cell-based. The following applies: antibodies crosslinked. The protocol: To generate the 293-hGITR-NFκB reporter gene cells line, 293 cells were stably transfected with an NFκB-Luciferase reporter gene and human GITR (or cyno GITR). Activation of the GITR signaling pathway in these cells was determined by measuring the levels of luciferase induced within the cells after a 24 hour incubation with GITR-L or agonistic antibody. To assess the effects of cross-linking Abs, they were incubated with an excess of a F(ab′)2 goat anti-human Fcγ fragment specific antibody or protein A before using in the reporter gene assay.
Functional activity of MABs were tested in an NFkB reporter gene assay for agonist activity. MAB was diluted to 6 μg/mL in PBS and incubated for 30 minutes at room temperature in the presence/absence of a 3 fold excess of F(ab′)2 fragment goat anti-human Fcγ specific crosslinker. Alternatively, MAB was diluted to 6 μg/mL in PBS and incubated for 30 minutes at room temperature in the presence/absence of a 2 fold excess of Protein A. 10 μL of incubated MAB was then added to a 384 well white clear bottomed assay plate. A HEK-293 cell line stably transfected with hGITR and a NFκB reporter gene was diluted to 5×10^5 cells/mL and 20 μL of the cell suspension was added to each well. […] 30 μL of Cell Bright Glo was added to each well and the plate was read for luminescence on the Acquest.
(In general: A reporter such as luciferase makes a cellular process visible.)

Experiment [2] deals with cynomolgus GITR. As to the kind of experiment: ELISA binding to GITR extracellular domain, cyno. How it is done:
(§1) Binding of the MABs to GITR from various species, various alanine mutant constructs or GITR extracellular domain—was assessed using a 384-well plate was coated with rat, mouse, human or cyno GITR extracellular domain (ECD) at 50 ng per well and incubated overnight at 4° C. The plate was blocked with a solution of 1% BSA in PBS for one hour at room temperature and then rinsed three times with PBST. The MAB was then diluted to 0.5 μg/mL or 1 μg/mL in PBS and 20 μL was added to each well. The plate was incubated for 1 hour at room temperature and then washed three times with PBST. Anti-human kappa antibody (Sigma #A7164), anti-human gamma antibody (Jackson Immunoresearch 109-036-098), goat anti-mouse antibody (Jackson ImmunoResearch 115-035-071) conjugated to HRP was diluted 1:5000 in Blocking Buffer (25 μL) and added to each well, or a hrp conjugated HIS antibody (QIAGEN 1014992) diluted 1:1000 in Blocking Buffer was added. The plate was incubated for 1 hour at room temperature, and then washed six times with PBST. 25 μL of SureBlue TMB (KPL 52-00-02) substrate was added to each well and the plate was incubated for about 10 min at room temperature. Plates were read at 650 nm in a spectrophotometer.
(An ELISA detects its analyte on a solid surface through an enzyme-linked reagent.)

The subject of experiment [3] is rodent GITR. As to the kind of experiment: ELISA binding to GITR extracellular domain, rodent. Further details: species or system rat, mouse. How it is done:
as §1

The target in experiment [4] is T2, human GITR (Homo sapiens, UniProt Q9Y5U5).
T2 construct: coated with rat, mouse, human or cyno GITR extracellular domain (ECD) at 50 ng per well
T2 sequence (Q9Y5U5 26-162 limits assumed): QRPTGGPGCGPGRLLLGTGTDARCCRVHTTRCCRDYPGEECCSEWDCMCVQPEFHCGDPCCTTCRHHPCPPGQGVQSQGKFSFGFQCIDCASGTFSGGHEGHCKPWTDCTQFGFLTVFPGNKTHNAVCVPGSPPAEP
The experiment in a line: ELISA binding to GITR extracellular domain, human. The protocol: as §1

B1: GITRL: recombinant human GITR ligand (GITR-L) (protein)
chain: ETAKEPCMAKFGPLPSKWQMASSEPPCVNKVSDWKLEILQNGLYLIYGQVAPNANYNDVAPFEVRLYKNKDMIQTLTNKSKIQNVGGTYELHVGDTIDLIFNSEHQVLKNNTYWGIILLANPQFIS
As for B1, the “NFκB activity / intracellular signaling” value in experiment [1] was “activates intracellular signaling”.

B2: MAB1: murine monoclonal GITR agonist antibody (parental); VH SEQ ID NO:61, VL SEQ ID NO:59 (antibody, V domains shown)
VH: QVQLKESGPGLVAPSQSLSITCTVSGFSLRSYGVDWVRQPPGKGLEWLGVIWGGGGTNYNSALMAKLSISKDKSKSQVFLKMNSLQTDDTAMYYCAKHAYGHDGGFAMDYWGQGTSVTVSS
VL: NIVMTQSPKSMSMSVGERVTLSCKASENVDTFVSWYQQKPDHSPKLLIYGASNRYTGVPDRFTGSGSATDFTLTISSVQAEDLADYHCGQSYSYPFTFGSGTKLEIK
For B2, the “binding to cynomolgus GITR in ELISA” value in experiment [2] is on record as “binds”. Also, the “binding to rodent GITR in ELISA” value in experiment [3] is reported as “not rodent GITR”. The “binding to human GITR in ELISA” value in experiment [4] is “binds”.

Values taken from patent US20170306038A1, “COMPOSITIONS AND METHODS OF USE FOR AUGMENTED IMMUNE RESPONSE AND CANCER THERAPY” (priority 2014, published 2017).
